Data on one substance can be found in publication PMC4129656.

For the assay, the target named is biotinylated E2F-1 peptide symmetrically methylated at R111 and R113. As to the kind of experiment: BLI. In general terms: BLI is a label-free optical method that tracks binding on a fibre tip over time.

One may read the Kd as the constant that tells how readily two partners part at equilibrium. For the substance “p100-TSN Tudor domain (biolayer interferometry) (from UniProt Q7KZF4 729-787) (domain or fragment)”, the Kd is 12 µM.
